Among the data in the supplement of paper PMC10126150 are switch fluorescence ratio values, retold here.

This data set relates to ATP. Briefly: switch fluorescence ratio, 500 uM ATP over buffer (Cy3 cluster intensity, sum of 5 cycles each) (fold (ratio)); higher = stronger signal-on switching upon ATP binding; sequences stand for … in TCGTCGGCAGCGTCAGATGTGTATAAGAGACAGTTTTTTTTTTTTTTTTTTTTTTTTT…TC. The note with it: aptamer strand: ATP DNA aptamer (quencher-CACCTGGGGGAGTATTGCGGAGGAAGG + anchor), 100 nM annealed; ATP concentration: 500 uM. The method in brief:
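Cy3-labelled switching-strand clusters on a modified Illumina MiSeq flow-cell were annealed to 100 nM quencher-labelled ATP aptamer and imaged first in selection buffer, then after 15 min with 500 uM ATP at 22 °C. NaOH stripping and re-annealing separated each of five buffer/ATP cycles, and clusters outside 100-1000 RFU were excluded. The fluorescence ratio sums target-cycle Cy3 intensity over buffer-cycle Cy3 intensity per cluster and averages it per switch-domain sequence.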

± gives the standard deviation of the averaged measurements.
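Note: ATP exposure 15 min at 22 °C before imaging.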

Regarding CGTATGGGAG, the switch fluorescence ratio was found to be 0.9452 ± 0.0036.

Regarding GTGGGGATCC, the switch fluorescence ratio came out at 1.025 ± 0.0046.

In the case of GTAAGAATGG, the switch fluorescence ratio is 1.03 ± 0.03.

Take AATTTTTTTG: the switch fluorescence ratio amounted to 1.04 ± 0.051.

As for CAGTGCAGCG, the switch fluorescence ratio came to 1.06 ± 0.057.

In the case of ATATGGGGAC, the switch fluorescence ratio came out at 1.01 ± 0.024.

With ATCATCTTCG, the switch fluorescence ratio amounted to 1.02 ± 0.015.

On to CTTAGTAATG, for which the switch fluorescence ratio is 1.05 ± 0.11.

For the sequence GTAACAGATT, the switch fluorescence ratio was 0.976 ± 0.039.

Regarding GGGATGGGAG, the switch fluorescence ratio was 1.02 ± 0.038.

TCTGATTATG: the switch fluorescence ratio was found to be 0.987 ± 0.011.

Regarding GGGTCCGCTG, the switch fluorescence ratio was 1.06 ± 0.07.

As for TGTGGTTTTG, the switch fluorescence ratio amounted to 0.9586 ± 0.0042.

Take ATTAGGGGGA: the switch fluorescence ratio was 1.03 ± 0.014.

CGTTTAACGT: the switch fluorescence ratio was found to be 0.989 ± 0.047.

On to TTTTATAT, for which the switch fluorescence ratio was 0.98 ± 0.03.

As to TCTTGAGGGA, the switch fluorescence ratio was found to be 1 ± 0.02.

Turning to CGGGATCGTC, the switch fluorescence ratio turned out to be 0.977 ± 0.024.

With TCGGACGTAC, the switch fluorescence ratio is 1.98 ± 0.16.

Take TCCGGGGCAG: the switch fluorescence ratio amounted to 1.262 ± 0.0072.

Consider GCTTCTGGGG, for which the switch fluorescence ratio turned out to be 1.03 ± 0.028.

On to GGTTGTTTTG, for which the switch fluorescence ratio came out at 1.017 ± 0.0097.

For GACTATTGGT, the switch fluorescence ratio was determined as 0.969 ± 0.0098.

As to TTAAATTCGA, the switch fluorescence ratio came out at 0.966 ± 0.036.

For GGGGACGACC, the switch fluorescence ratio was determined as 1.03 ± 0.017.

In the case of CTTTACAGGG, the switch fluorescence ratio is 1 ± 0.064.

With GCGTGTGAGC, the switch fluorescence ratio is 1 ± 0.012.

Consider TGGGAGGTTT, for which the switch fluorescence ratio worked out at 1.05 ± 0.18.

Take GGGAACGTGT: the switch fluorescence ratio is 0.997 ± 0.019.

In the case of AGGGGTGTTA, the switch fluorescence ratio came out at 0.991 ± 0.019.

In the case of TCGCTTGGCC, the switch fluorescence ratio amounted to 1.03 ± 0.04.

Take GGTGTTCTGA: the switch fluorescence ratio was found to be 1.01 ± 0.023.

For TTTTGGTTAG, the switch fluorescence ratio was 0.983 ± 0.015.

Turning to AGGTTGAGCT, the switch fluorescence ratio stood at 0.9791 ± 0.0021.

Consider GGTTTTGCAG, for which the switch fluorescence ratio was determined as 0.9946 ± 0.0069.

On to AAAAAAAGGC, for which the switch fluorescence ratio was determined as 0.998 ± 0.042.

CACGGCCGAA: the switch fluorescence ratio turned out to be 0.973 ± 0.013.

For AGGCAGCTGT, the switch fluorescence ratio came out at 1.01 ± 0.018.

On to TGATCTTGGA, for which the switch fluorescence ratio worked out at 1.06 ± 0.055.

As for TGTTTTGCGT, the switch fluorescence ratio turned out to be 1.01 ± 0.037.

On to TAATTCGTAC, for which the switch fluorescence ratio turned out to be 1.07 ± 0.078.

In the case of CTCAGAATAG, the switch fluorescence ratio came to 1.37 ± 0.075.

Turning to TATTATTGGA, the switch fluorescence ratio came out at 1 ± 0.042.

GCTGTAACGA: the switch fluorescence ratio is 0.998 ± 0.017.

As for CGGTTCTACG, the switch fluorescence ratio stood at 1.009 ± 0.0053.

As for GGAGGCCATG, the switch fluorescence ratio was determined as 0.967 ± 0.01.

As to AGGGAGGGAT, the switch fluorescence ratio worked out at 1.01 ± 0.027.

As for ATTTAAAACC, the switch fluorescence ratio is 1.06 ± 0.015.

Turning to TCGGTCGGGC, the switch fluorescence ratio came out at 1.01 ± 0.013.

Consider GATGAGCGCC, for which the switch fluorescence ratio was determined as 1.03 ± 0.037.

With GTTATGGCTG, the switch fluorescence ratio is 1.05 ± 0.021.

TGTTTGTGAT: the switch fluorescence ratio was 1.003 ± 0.0098.

For the sequence ATTCTGATTG, the switch fluorescence ratio turned out to be 1.02 ± 0.033.

On to GCATAAAACT, for which the switch fluorescence ratio was 1.04 ± 0.014.

Turning to GAGCTGTAAC, the switch fluorescence ratio turned out to be 1.02 ± 0.053.

Turning to TTTGTACAAC, the switch fluorescence ratio was found to be 1.01 ± 0.05.

For ATAATTCGGC, the switch fluorescence ratio is 0.984 ± 0.022.

As for TTTATAAGTA, the switch fluorescence ratio stood at 1.02 ± 0.026.

Consider GGGGTAAAGG, for which the switch fluorescence ratio is 1.04 ± 0.11.

Take CCTTTATGGG: the switch fluorescence ratio was determined as 0.9952 ± 0.0095.

As for TTTCGGTTCA, the switch fluorescence ratio is 1.037 ± 0.0044.

In the case of CATTTACCGG, the switch fluorescence ratio stood at 0.996 ± 0.056.

As for CGGGTAGTGG, the switch fluorescence ratio was determined as 0.995 ± 0.032.

Turning to CTAACGTATA, the switch fluorescence ratio stood at 1.18 ± 0.036.

For the sequence TAGGGCGGGT, the switch fluorescence ratio came to 0.972 ± 0.039.

Consider TGGATCAATT, for which the switch fluorescence ratio is 1.01 ± 0.011.

As to GTTCTTGGG, the switch fluorescence ratio was found to be 0.9835 ± 0.0023.

Regarding CATTTAGGTT, the switch fluorescence ratio amounted to 0.982 ± 0.019.

In the case of TCGGAGGGGC, the switch fluorescence ratio worked out at 1.03 ± 0.013.

Consider GGCTTGGGGC, for which the switch fluorescence ratio was 0.9756 ± 0.0032.

For TAATTCTTAG, the switch fluorescence ratio was determined as 0.989 ± 0.02.

As for GTGGGTAATT, the switch fluorescence ratio worked out at 0.995 ± 0.033.

With ATGGCTGTCA, the switch fluorescence ratio is 1.012 ± 0.0012.

With TGATGCGTGT, the switch fluorescence ratio worked out at 0.999 ± 0.027.

On to CAAAGGGCAA, for which the switch fluorescence ratio is 1.11 ± 0.038.

In the case of GCTCGTAGTG, the switch fluorescence ratio is 1 ± 0.047.

In the case of GGCGCCGTTT, the switch fluorescence ratio turned out to be 0.986 ± 0.023.

In the case of CGTTGCTTGG, the switch fluorescence ratio is 1 ± 0.046.

For CCGTCAAGAG, the switch fluorescence ratio came to 4.35 ± 0.16.
